Consider 1 molecule from article PMC10397247.

Assay in all cases: two-hybrid library CCNG1;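 further: natural log of median RNA to DNA barcode read ratio; higher means stronger binding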
The target of one test is T1, P1SHb.
T1 chain: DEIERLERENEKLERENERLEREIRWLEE

The next test has as its target T2, P9SHb.
T2 chain: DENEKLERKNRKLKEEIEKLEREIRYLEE

The target in the next test is T3, P7SHb.
T3 chain: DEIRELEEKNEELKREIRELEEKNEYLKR

A further test deals with T4, P3SHb.
T4 chain: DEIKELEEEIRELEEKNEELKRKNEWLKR

A further test concerns the target T5, P6SHb.
T5 chain: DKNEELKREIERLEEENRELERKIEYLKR

A further test concerns the target T6, P5SHb.
T6 chain: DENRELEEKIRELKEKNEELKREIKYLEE

In a further test the target is T7, P2SHb.
T7 chain: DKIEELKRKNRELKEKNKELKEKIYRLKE

A further test has as its target T8, P8SHb.
T8 chain: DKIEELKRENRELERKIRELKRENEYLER

The target in a further test is T9, P4SHb.
T9 chain: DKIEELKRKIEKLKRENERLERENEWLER

B1: P1SHb (peptide)
chain: DEIERLERENEKLERENERLEREIRWLEE
B1: the interaction score with P1SHb is -1.02; with P9SHb, -0.505; with P7SHb, -0.298; with P3SHb it was -1.76; with P6SHb, -0.147; with P5SHb, -0.59. Besides, the results for the interaction score in the test with P2SHb, in the test with P8SHb and with P4SHb were 1.75, -0.756 and -0.498, respectively.
